Reference: patent publication US20220332804A1 (CSL INNOVATION, published 2022)
Numbering of substitutions follows the chain as printed.

Experiments:
Assay in all cases: SPR, antibody captured, C2 as analyte;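 note: biacore at 37 °C, anti-C2 mAbs held by immobilised goat anti-human IgG, C2 alanine or serine mutants injected, double-referenced sensorgrams fitted to a 1:1 kinetic or steady-state model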
human C2 K415A = molecular target: T1, human C2 K415A (human, UniProt P06681 21-752)
T1 sequence: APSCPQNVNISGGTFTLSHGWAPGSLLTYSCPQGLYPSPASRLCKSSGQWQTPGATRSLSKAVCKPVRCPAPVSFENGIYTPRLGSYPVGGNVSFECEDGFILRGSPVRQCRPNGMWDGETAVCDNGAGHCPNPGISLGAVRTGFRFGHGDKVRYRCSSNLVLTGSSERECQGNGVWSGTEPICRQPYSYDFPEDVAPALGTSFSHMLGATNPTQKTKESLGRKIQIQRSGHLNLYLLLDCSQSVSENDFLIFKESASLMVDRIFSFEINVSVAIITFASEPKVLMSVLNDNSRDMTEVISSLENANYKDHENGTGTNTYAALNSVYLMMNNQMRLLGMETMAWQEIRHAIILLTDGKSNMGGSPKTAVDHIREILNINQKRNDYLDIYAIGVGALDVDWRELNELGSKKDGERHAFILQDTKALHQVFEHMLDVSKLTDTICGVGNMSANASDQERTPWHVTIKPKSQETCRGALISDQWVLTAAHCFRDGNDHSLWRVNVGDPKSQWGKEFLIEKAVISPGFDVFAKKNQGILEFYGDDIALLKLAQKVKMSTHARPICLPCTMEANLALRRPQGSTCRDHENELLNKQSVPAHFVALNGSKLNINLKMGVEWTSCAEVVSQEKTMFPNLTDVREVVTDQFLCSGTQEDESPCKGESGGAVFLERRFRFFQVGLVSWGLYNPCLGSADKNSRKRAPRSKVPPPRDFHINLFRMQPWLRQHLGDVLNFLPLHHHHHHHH
Protocol: (§1) Surface plasmon resonance (SPR, Biacore) was used for all binding affinity analyses. In brief, goat anti-human IgG was directly immobilised onto the carboxymethyl dextran surface of CM5 sensorchips to approximately 12,000 RU using standard NHS/EDC chemistry at pH 5. The immobilised antibody surface was pre-conditioned with ten injections of polyclonal human IgG (Privigen 60 s) prepared at 1 μg/mL. Ligands (anti-C2 mAbs) were captured at the beginning of each cycle as described below. An adjacent spot or flow cell in which only Polyclonal IgG was capture was used as a reference surface. The goat anti-human IgG Fc antibody surface was regenerate in 100 mM H3PO4, injected for 45 seconds at the end of each cycle. Experiments were performed at 37° C. and the flow rate of each experiment was kept constant at 30 μL/min.
(§2) Sensogram data was double-referenced against a reference anti-IgG surface (i.e. minus anti-C2 mAb) and blank buffer injections obtained within each experiment. The binding data was fit to 1:1 (kinetic or steady-state) model using local Rmax and null refraction index (RI=0) when appropriate. Buffers and solutions were filtered (0.22 μm) prior to use.

human C2 A444S = molecular target: T2, human C2 A444S (human, UniProt P06681 21-752)
T2 sequence: T1 sequence with A395K, A424S
Protocol: as §1, §2

human C2 A470S = molecular target: T3, human C2 A470S (human, UniProt P06681 21-752)
T3 sequence: T1 sequence with A395K, A450S
Protocol: as §1, §2

human C2 R434A = molecular target: T4, human C2 R434A (human, UniProt P06681 21-752)
T4 sequence: T1 sequence with A395K, R414A
Protocol: as §1, §2

B1: RF16-242 (antibody, human IgG4 S228P, lambda, V domains shown)
VH: EVQLLQSGAEVKKPGESLKISCKGSGYSFTSYWIGWVRQMPGKGLEWMGIIYPGDSDTRYSPSFQGQVTISADKSISTAYLQWSSLKASDTAMYYCARRGHYGDYFDYWGQGTLVTVSS
VL: SYELTQPPSVSVSPGQTARITCSGDALPKKYAYWYHQKSGQAPVLVIYEDRRRPSEIPERFSGSSSGTMATLTITGAQVEDEGVYFCYSRDRAGNQRVFGGGTQLTVLG
notes: pH-dependent anti-C2 antibody from a phage display library
- Kd (human C2 K415A): 4.1 nM
- Kd (human C2 A444S): 22.4 nM
- Kd (human C2 A470S): 5 nM
- Kd (human C2 R434A): 98.9 nM
